# Reference: PMC3317499 (2012)
# B1: Myc-Mal-TIR wild type (TIR domain of human MyD88 adaptor-like protein, residues 79-221, double-tagged with His6 and Myc) [human] / GST-MyD88-TIR (TIR domain of human MyD88, residues 148-296, GST fusion) [human] (parent complex)
# chain 1: SSRWSKDYDVCVCHSEEDLVAAQDLVSYLEGSTASLRCFLQLRDATPGGAIVSELCQALSSSHCRVLLITPGFLQDPWCKYQMLQALTEAPGAEGCTIPLLSGLSRAAYPPELRFMYYVDGRGPDGGFRQVKEAVMRYLQTLS
# chain 2: TTLDDPLGHMPERFDAFICYCPSDIQFVQEMIRQLEQTNYRLKLCVSDRDVLPGTCVWSIASELIEKRCRRMVVVVSDDYLQSKECDFQTKFALSLSPGAHQKRLIPIKYKAMKKEFPSILRFITVCDYTNPCTKSWFWTRLAKALSLP
# B2: Myc-Mal-TIR wild type (TIR domain of human MyD88 adaptor-like protein, residues 79-221, double-tagged with His6 and Myc) [human] / GST-TLR4-TIR (TIR domain of human TLR4, residues 670-839, GST fusion) [human] (parent complex)
# chain 1: B1 chain 1
# chain 2: GENIYDAFVIYSSQDEDWVRNELVKNLEEGVPPFQLCLHYRDFIPGVAIAANIIHEGFHKSRKVIVVVSQHFIQSRWCIFEYEIAQTWQFLSSRAGIIFIVLQKVEKTLLRQQVELYRLLSRNTYLEWEDSVLGRHIFWRRLRKALLDGKSWNPEGTVGTGCNWQEATSI
# Variants of: B1
# Experiment: GST pull-down, quantified Western blot; n = 3 separate experiments; parent: 1; read off a plot
row,ratio to parent,Variant
1,~0.76,chain 1 E30A
2,~0.42,chain 1 F39A

# Variants of: B2
# Experiment: as above
row,ratio to parent,Variant
1,~0.39,chain 1 E30A
2,~0.24,chain 1 F39A
